Source: publication PMC5992430, “C-Reactive Protein (CRP) and Leptin Receptor in Obesity: Binding of Monomeric CRP to Leptin Receptor” (Frontiers in Immunology, 2018)

Molecular target: T1, Soluble recombinant human leptin receptor (human, UniProt P48357 22-839)
T1 construct: leptin receptor (Ob R), human, soluble recombinant form; PDB 3V6O (CRH2 domain) was used only for docking; also called recombinant leptin receptor; Ob R; source: bought: Thermo Fischer, USA (synthesized in Escherichia coli)
T1 sequence (looked up): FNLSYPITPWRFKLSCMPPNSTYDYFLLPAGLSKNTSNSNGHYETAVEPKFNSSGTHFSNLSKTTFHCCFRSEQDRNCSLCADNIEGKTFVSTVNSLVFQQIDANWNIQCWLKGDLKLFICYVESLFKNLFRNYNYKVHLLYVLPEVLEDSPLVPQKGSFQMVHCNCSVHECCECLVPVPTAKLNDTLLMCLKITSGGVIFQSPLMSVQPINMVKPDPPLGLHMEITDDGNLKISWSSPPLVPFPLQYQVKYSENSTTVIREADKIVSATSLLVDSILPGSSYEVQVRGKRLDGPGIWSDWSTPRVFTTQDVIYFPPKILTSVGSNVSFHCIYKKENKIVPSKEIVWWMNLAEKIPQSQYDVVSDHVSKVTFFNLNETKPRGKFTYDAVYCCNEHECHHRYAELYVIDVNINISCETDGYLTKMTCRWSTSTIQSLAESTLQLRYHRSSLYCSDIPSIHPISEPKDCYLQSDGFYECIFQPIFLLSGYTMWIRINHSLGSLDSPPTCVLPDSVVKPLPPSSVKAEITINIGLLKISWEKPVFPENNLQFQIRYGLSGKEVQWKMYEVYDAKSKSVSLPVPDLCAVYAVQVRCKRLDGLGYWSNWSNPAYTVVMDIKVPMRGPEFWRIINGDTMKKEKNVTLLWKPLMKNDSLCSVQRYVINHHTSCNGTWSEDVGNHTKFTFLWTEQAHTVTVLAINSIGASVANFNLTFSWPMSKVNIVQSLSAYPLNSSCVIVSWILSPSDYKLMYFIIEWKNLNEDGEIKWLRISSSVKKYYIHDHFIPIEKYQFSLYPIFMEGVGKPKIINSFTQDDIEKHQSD
Assay: ELISA; solid phase binding assay; CRP forms or control proteins coated on a 96-well plate at 4°C overnight in Tris/HCl 0.05 M pH 7.4 (different concentrations, or 0.6 µg/ml for Figure 5B); blocked with 0.5% gelatin; leptin receptor 100 ng/ml in 50 µl PBS added for 1 h at RT; detected with anti-Ob R antibody and HRP anti-rabbit IgG
Details: both partners purified

B1: Monomeric CRP prepared from human serum CRP (natural protein, UniProt P02741 19-224, looked up)
chain: QTDMSRKAFVFPKESDTSYVSLKAPLTKPLKAFTVCLHFYTELSSTRGYSIFSYATKRQDNEILIFWSKDIGYSFTVGGSEILFEVPEVTVAPVHICTSWESASGIVEFWVDGKPRVRKSLKKGYTVGAEASIILGQEQDSFGGNFEGSQSLVGDIGNVNMWDFVLSPDEINTIYLGGPFSPNVLNWRALKYEVQGEVFTKPQLWP
notes: C-reactive protein, human, from serum; protomer of 206 amino acid residues as printed in the introduction; dissociated to the monomer with urea/EDTA; Same chain as native CRP, dissociated to monomers; also called s-mCRP; human mCRP; source: bought: Thermo Fischer, USA (human CRP); made monomeric with 8 M urea/10 mM EDTA at 37°C for 2 h
For B1, the Kd was 10.2 nM.
